“And” between values parts separate entries of the source, which are not always exact repeats. Identical values can stand only once.

A word on the Kd: it is the free concentration of one partner at which half of the binding sites on the other are occupied at equilibrium, for simple one-to-one binding. As a reminder, the EC50 is the concentration that produces a half-maximal response. A higher EC50 goes with lower potency in that assay.

For experiment [1], the target named is T1, human BCMA on myeloma cells (H929, U266) (human, UniProt Q02223 1-184).
T1 construct: whole, on cells
T1 sequence (looked up): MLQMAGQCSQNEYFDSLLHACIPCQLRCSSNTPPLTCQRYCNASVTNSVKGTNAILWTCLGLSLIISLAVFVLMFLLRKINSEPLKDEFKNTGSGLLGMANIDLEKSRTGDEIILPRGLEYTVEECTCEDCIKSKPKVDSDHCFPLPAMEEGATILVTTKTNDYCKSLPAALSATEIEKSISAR
The experiment can be described thus: flow cytometry on BCMA-positive H929 cells, PE anti-human Fc secondary antibody, median fluorescence intensity. Here is the method: (§1) Briefly, cultured cells are harvested, counted and cell viability was evaluated using ViCell. Viable cells are then adjusted to 2×10⁶ cells per ml in BSA-containing FACS Stain Buffer (BD Biosciences). 100 μl of this cell suspension were further aliquoted per well into a round-bottom 96-well plate and incubated with 30 μl of the BCMA-TCB CLC antibodies or corresponding TCB control for 30 min at 4° c. All BCMA-TCB CLC antibodies (and TCB controls) were titrated and analyzed in final concentration range between 0.12-500 nM. […] Cells were then washed twice with Stain Buffer (BD Biosciences), fixed using 100 ul BD Fixation buffer per well (#BD Biosciences, 554655) at 4° C. for 20 min, resuspended in 120 μl FACS buffer and analyzed using BD FACS CantoII.
In general terms: Flow cytometry measures light scatter and fluorescence of single cells or particles in a stream.

The target in experiment [2] is T2, human FolR1 on cells (HeLa, SKOV3, HT-29, transfected HEK) (human, UniProt P15328 25-234).
T2 construct: whole, on cells
T2 sequence (P15328 25-234): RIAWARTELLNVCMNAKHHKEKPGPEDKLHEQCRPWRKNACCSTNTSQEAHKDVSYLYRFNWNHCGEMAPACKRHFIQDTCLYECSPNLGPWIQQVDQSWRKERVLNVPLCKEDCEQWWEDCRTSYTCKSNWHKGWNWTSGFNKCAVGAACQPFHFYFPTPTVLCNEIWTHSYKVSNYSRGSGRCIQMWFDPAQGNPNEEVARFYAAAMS
Put plainly: flow cytometry, tumor cell panel.

Experiment [3] deals with T1, human BCMA on myeloma cells (H929, U266). The experiment can be described thus: cell-based or functional assay.
The target is the same in experiment [4]. The experiment can be described thus: cell-based or functional assay. The source holds these as a separate data set.
Experiment [5] has as its target T3, recombinant murine BCMA Fc(kih) (murine, UniProt O88472 2-49, biotinylated at the avi-tag of the Fc knob chain (not in the letters)).
T3 construct: also called muBCMA Fc(kih); not shown: human IgG1 hinge-Fc(knob)-avi and the unfused Fc(hole) chain
T3 chain: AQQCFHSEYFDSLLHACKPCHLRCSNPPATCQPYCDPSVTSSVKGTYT
Put plainly: SPR Biacore, binder captured via anti-Fab, BCMA-Fc analyte. (Surface plasmon resonance follows binding to a sensor surface in real time, without labels.)

The target in experiment [6] is T4, recombinant human BCMA Fc(kih) (human, UniProt Q02223 4-53, biotin on avi-tag where coupled to SA chip ; biotin on the avi-tag of the Fc-knob chain where coupled to the SA chip (tag not in the letters)).
T4 construct: also called huBCMA Fc(kih); huBCMA; not shown: human IgG1 hinge-Fc(knob)-avi fused to the ECD, and the unfused Fc(hole) chain
T4 chain: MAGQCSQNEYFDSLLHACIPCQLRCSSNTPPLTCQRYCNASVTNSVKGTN
Described as above.

Experiment [7] addresses T1, human BCMA on myeloma cells (H929, U266). The experiment can be described thus: flow cytometry, H929 cells. On the procedure: as §1
The target of experiment [8] is T5, murine FolR1 monovalent Fc fusion, biotinylated (murine, UniProt P35846 25-232, biotin on C-terminal Avi-tag ; Biotin on the C-terminal Avi-tag of the Fc-knob chain (that part is not in the letters).).
T5 construct: as m1; also called muFolR1; murine FolR1-Fc; not shown: IgG hinge, Fc-knob and C-terminal Avi-tag fused to the ECD, and the co-expressed Fc-hole chain
T5 sequence (P35846 25-232 limits assumed): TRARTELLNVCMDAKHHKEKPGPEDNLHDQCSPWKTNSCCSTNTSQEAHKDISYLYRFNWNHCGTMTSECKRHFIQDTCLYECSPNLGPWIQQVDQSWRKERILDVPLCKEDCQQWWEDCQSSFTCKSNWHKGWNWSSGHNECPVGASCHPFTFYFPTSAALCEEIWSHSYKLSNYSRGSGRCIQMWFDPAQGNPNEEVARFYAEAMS
Put plainly: SPR ProteOn, Fab analyte, antigen on chip. Here is the method: Immobilization of antigens (ligand): Recombinant antigens were diluted with PBST (10 mM phosphate, 150 mM sodium chloride pH 7.4, 0.005% Tween 20) to 10 μg/ml, then injected at 30 μl/minute in vertical orientation. Injection of analytes: For ‘one-shot kinetics’ measurements, injection direction was changed to horizontal orientation, two-fold dilution series of purified Fab (varying concentration ranges) were injected simultaneously along separate channels 1-5, with association times of 150 or 200 s, and dissociation times of 200 or 600 s, respectively. Buffer (PBST) was injected along the sixth channel to provide an “in-line” blank for referencing. Association rate constants (kₒₙ) and dissociation rate constants (koff) were calculated using a simple one-to-one Langmuir binding model in ProteOn Manager v3.1 software by simultaneously fitting the association and dissociation sensorgrams. The equilibrium dissociation constant (KD) was calculated as the ratio koff/kₒₙ.

B1: DP47 GS TCB (2+1 Crossfab-IgG P329G LALA inverted, untargeted TCB) (bispecific antibody)
heavy 1: not shown
heavy 2: not shown
light 1: not shown
light 2: QAVVTQEPSLTVSPGGTVTLTCGSSTGAVTTSNYANWVQEKPGQAFRGLIGGTNKRAPGTPARFSGSLLGGKAALTLSGAQPEDEAEYYCALWYSNLWVFGGGTKLTVLSSASTKGPSVFPLAPSSKSTSGGTAALGCLVKDYFPEPVTVSWNSGALTSGVHTFPAVLQSSGLYSLSSVVTVPSSSLGTQTYICNVNHKPSNTKVDKKVEPKSC
notes: negative control; also called DP47 TCB; DP47-TCB
With B1, the binding result in experiment [1] was “no binding (tested: 500 nM)”; in experiment [2], “no binding”.

B2: pSCHLI372-TCB CLC (bispecific antibody)
heavy 1: not shown
heavy 2: EVQLVESGGGLVKPGGSLRLSCAASGFTFSNSGMIWVRQAPGKGLEWVGHIRSKTDGGTTDYAAPVKGRFTISRDDSKNTLYLQMNSLKTEDTAVYYCTTGGSGSFDYWGQGTLVTVSSASTKGPSVFPLAPSSKSTSGGTAALGCLVKDYFPEPVTVSWNSGALTSGVHTFPAVLQSSGLYSLSSVVTVPSSSLGTQTYICNVNHKPSNTKVDKKVEPKSCDKTHTCPPCPAPEAAGGPSVFLFPPKPKDTLMISRTPEVTCVVVDVSHEDPEVKFNWYVDGVEVHNAKTKPREEQYNSTYRVVSVLTVLHQDWLNGKEYKCKVSNKALGAPIEKTISKAKGQPREPQVCTLPPSRDELTKNQVSLSCAVKGFYPSDIAVEWESNGQPENNYKTTPPVLDSDGSFFLVSKLTVDKSRWQQGNVFSCSVMHEALHNHYTQKSLSLSPGK
light: QAVVTQEPSLTVSPGGTVTLTCGSSTGAVTTSNYANWVQEKPGQAFRGLIGGTNKRAPGTPARFSGSLLGGKAALTLSGAQPEDEAEYYCALWYSNLWVFGGGTKLTVLGQPKAAPSVTLFPPSSEELQANKATLVCLISDFYPGAVTVAWKADSSPVKAGVETTTPSKQSNNKYAASSYLSLTPEQWKSHRSYSCQVTHEGSTVEKTVAPTECS
notes: also called pSCHLI372 BCMAxCD3 TCB
For B2, the “EC50 redirected T-cell killing, U266” value in experiment [3] was 5700 pM and 1.1 µg/ml. Further, in experiment [4], the “EC50 redirected T-cell killing, H929 (Experiment 1)” value is 450 pM and 0.08 µg/ml; the “EC50 redirected T-cell killing, H929 (Experiment 2)” value was 900 pM and 0.17 µg/ml. The Kd in experiment [5] is 344 nM. Further, the Kd in experiment [6] turned out to be 63 nM. The EC50 in experiment [7] was 345 nM and 65.9 µg/mL.

B3: 14E4 Fab (Fab, V domains shown)
VH: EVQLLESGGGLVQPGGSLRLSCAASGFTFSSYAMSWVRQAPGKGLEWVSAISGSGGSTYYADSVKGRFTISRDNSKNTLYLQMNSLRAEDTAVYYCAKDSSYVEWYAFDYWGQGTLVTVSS
VL: EIVLTQSPGTLSLSPGERATLSCRASQSVSSSYLAWYQQKPGQAPRLLIYGASSRATGIPDRFSGSGSGTDSTLTISRLEPEDFAVYYCQQPTSSPITFGQGTKVEIK
notes: as m51
Take B3: the Kd in experiment [8] was found to be 6.09 nM.

Values taken from patent US20170253670A1 (Hoffmann-La Roche, published 2017).
